Measurements taken from the supplement of paper PMC10567573.

B1: AUP1 (parent)
chain: EGLLRFSSWPFSIQDVVQPLTLQV
B2: EPB41L3 (parent)
chain: FRFAPNHTKELEDKVIELHKSHRG
B3: TRIM43 (parent)
chain: NRFRVEISFHFEVTNHNIRLFEDV

Variants of: B1
Assay: protein stability index of a GFP-peptide fusion (GPS, HEK-293T) (PSI 1-6); higher = more stable
Settings: c terminus: a fixed tail appended
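Further: lentivirally expressed fusions sorted by FACS into six bins by GFP to DsRed ratio, PSI derived from sequencing read proportions per bin multiplied by bin number.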

Protein stability index, by site and new letter:
G2: H 3.65; R 2.83; C 3.51; E 2.63
E1: C 3.48; R 4.19; S 2.31; P 1.82; I 1.02; Y 2.78; M 1.43; T 1.8; N 2.31
L3: E 2.41; D 1.83; T 4.12; P 2.44; V 2.22; K 2.2; A 1.76; C 4.98
L4: G 4; D 2.08; C 3.27; I 3.16

Variants of: B2
Assay: as above
Settings: c terminus: a fixed tail appended

Protein stability index of substitutions, site by site:
N6: C 1.97; M 1.83; D 2; Q 2.02; H 2.54
L18: H 1.82; D 3.17; V 1.93; G 2.02; M 3.06
A4: V 1.82; W 2.41; T 2.24; S 3.9; G 3.08
R2: C 3.36; L 2.78; H 2.01; E 4.02; W 2.88; S 3.56
H19: A 2.11; G 1.88; R 2.19; F 1.95
H22: M 1.55; P 2.17
K20: F 1.55; G 2.22; M 1.81
E10: S 2.07; Y 1.97; V 1.73; W 1.21
E12: N 1.74; L 1.97; Y 1.22; D 1.83; P 2.34; A 1.99; K 1.96; T 1.36
S21: Q 2.59; E 2.9; D 2.56; K 1.74; H 1.71; L 1.83
R23: V 1.83; M 1.73; W 1.54; H 1.92; A 2.07; S 1.85
F1: L 3.78; Y 3.73; Q 3.89; P 3.99; G 3.6
L11: T 2.21
G24: L 2.02; P 2.19; M 2.53
K14: M 2.01; Y 2.44; W 1.96; A 2.34; S 1.97; N 2.25; T 2.31; R 1.97; D 2.32; P 1.86
K9: A 1.71; G 2.04; W 2.34; N 2.39; M 1.77; I 2.56; R 1.7; F 2.14
P5: M 2.31; N 2.24; H 2.31
H7: C 1.47; E 1.96; G 2.42; K 1.88; S 1.93
V15: E 2.23; G 2.55; M 2.87
E17: D 2.18; Y 2.66; H 2.04; M 2.5; Q 1.55; F 2.34; S 2.12; K 1.72
F3: H 4.03; E 4.57; Y 2.28; R 3.6; S 4.07
I16: Q 2.12; M 2.1; V 2.71; R 1.81; S 2.11
D13: K 1.86; L 2.2

Variants of: B3
Assay: as above
Settings: c terminus: a fixed tail appended

Protein stability index, by site and new letter:
H16: C 3.06; L 1.82; A 3.14; V 1.07; R 4.01; S 2.05; Y 2.9
N1: Q 3.07; T 1.62; D 3.89; C 3.11; L 3.45; R 2.37
F9: S 1.91; N 2.22; G 2; K 1.85; H 1.09; E 1.95; D 2.27; T 2.01; A 2.87; P 2.08; Q 1.28; R 1.76
N15: W 3.34; C 3.41; E 2.92; S 2.18; V 2.13; L 3.22; G 2.28; P 3.72; M 2.49; Y 3.23; D 2.5; T 1.49; F 3.62
R4: K 2.96; A 3.36; L 2.88; I 3.43; T 2.08; C 2.91; G 3.21; E 3.4; N 2.75
T14: L 2.29; H 3.49; N 3.31; Y 3.83; E 2.04
H10: S 3.4; P 3.64; E 2.98; Q 4.08; N 2.63
V5: K 3.27; E 1.46; A 3.44; T 3.37; F 2.78; S 2.08; Q 1.79; G 2.86; P 2.8; D 2.08; R 1.5; N 2.11; W 2.53
R2: P 2.38; S 1.5; W 2.21; Q 3.46; I 3.39; Y 2.89; D 2.46; V 1.92
D23: I 3.66; Q 2.92; G 3.13; M 2.12; K 1.95; Y 2.39; F 3.88; N 2.91; E 2.56
F11: Q 2.38; D 1.27; E 1.03; T 2.44; S 2.74; P 1.58; I 2.83; K 1.46
V13: H 2.26; M 2.35; P 4.3; D 1.93; E 4.46
E12: L 2.91; A 2.58; N 1.39; Y 2.51; I 1.68; W 2.64
F21: W 2; E 2.31; R 1.88; P 1.76; C 2.67; L 2.29; Y 3.98; Q 3.09
F3: C 2.54; V 2.2; D 3.13; K 2.36; N 3.43; E 1.53; T 2.7; I 2.35; A 3.07; M 2.92
I18: T 2.09; K 1.47; C 4.6; Y 3.23; G 2.43; P 3.07; V 2.97; E 2.9; W 3.01; H 3.18; S 2.35; Q 3.52; D 1.3
N17: F 2.85; C 3.65; R 2.53; Q 3.45; I 1.37; K 2.61; D 4.85
L20: R 3.74; Y 2.13; V 4.23; F 3.05; Q 3.28
V24: F 2.43; I 2.14; T 2.44; L 1.95; K 2.85; Q 3.09; H 4.23
E6: H 4.48; A 2.86; S 3.18; D 2.34; T 4.38; M 2.64; G 2.02; L 2.03; V 3.86; P 2.27; K 3.25
I7: T 1.68; F 3.57; R 2.85; E 1.91; N 2.06; K 2.12; Y 3.41; P 1.81; D 2.44; G 2.43
E22: P 2.14; T 2.66; K 2.02; L 2.29; H 3.18; Q 2.31; D 2.4
S8: C 2.02; L 3.72; R 2.43; M 2.39; P 2.36; G 2.38
R19: P 1.69; S 3.39; D 3.62; I 2.06; Q 2.14; Y 3.54; H 3.79
